Consider two substances from patent US20060067919A1.

In the assay the target is truncated APC mutant in SW480 cells (human) (UniProt P25054). Description: cell-based or functional assay.
UniProt P25054, sequence (P25054 2-1337, change not shown): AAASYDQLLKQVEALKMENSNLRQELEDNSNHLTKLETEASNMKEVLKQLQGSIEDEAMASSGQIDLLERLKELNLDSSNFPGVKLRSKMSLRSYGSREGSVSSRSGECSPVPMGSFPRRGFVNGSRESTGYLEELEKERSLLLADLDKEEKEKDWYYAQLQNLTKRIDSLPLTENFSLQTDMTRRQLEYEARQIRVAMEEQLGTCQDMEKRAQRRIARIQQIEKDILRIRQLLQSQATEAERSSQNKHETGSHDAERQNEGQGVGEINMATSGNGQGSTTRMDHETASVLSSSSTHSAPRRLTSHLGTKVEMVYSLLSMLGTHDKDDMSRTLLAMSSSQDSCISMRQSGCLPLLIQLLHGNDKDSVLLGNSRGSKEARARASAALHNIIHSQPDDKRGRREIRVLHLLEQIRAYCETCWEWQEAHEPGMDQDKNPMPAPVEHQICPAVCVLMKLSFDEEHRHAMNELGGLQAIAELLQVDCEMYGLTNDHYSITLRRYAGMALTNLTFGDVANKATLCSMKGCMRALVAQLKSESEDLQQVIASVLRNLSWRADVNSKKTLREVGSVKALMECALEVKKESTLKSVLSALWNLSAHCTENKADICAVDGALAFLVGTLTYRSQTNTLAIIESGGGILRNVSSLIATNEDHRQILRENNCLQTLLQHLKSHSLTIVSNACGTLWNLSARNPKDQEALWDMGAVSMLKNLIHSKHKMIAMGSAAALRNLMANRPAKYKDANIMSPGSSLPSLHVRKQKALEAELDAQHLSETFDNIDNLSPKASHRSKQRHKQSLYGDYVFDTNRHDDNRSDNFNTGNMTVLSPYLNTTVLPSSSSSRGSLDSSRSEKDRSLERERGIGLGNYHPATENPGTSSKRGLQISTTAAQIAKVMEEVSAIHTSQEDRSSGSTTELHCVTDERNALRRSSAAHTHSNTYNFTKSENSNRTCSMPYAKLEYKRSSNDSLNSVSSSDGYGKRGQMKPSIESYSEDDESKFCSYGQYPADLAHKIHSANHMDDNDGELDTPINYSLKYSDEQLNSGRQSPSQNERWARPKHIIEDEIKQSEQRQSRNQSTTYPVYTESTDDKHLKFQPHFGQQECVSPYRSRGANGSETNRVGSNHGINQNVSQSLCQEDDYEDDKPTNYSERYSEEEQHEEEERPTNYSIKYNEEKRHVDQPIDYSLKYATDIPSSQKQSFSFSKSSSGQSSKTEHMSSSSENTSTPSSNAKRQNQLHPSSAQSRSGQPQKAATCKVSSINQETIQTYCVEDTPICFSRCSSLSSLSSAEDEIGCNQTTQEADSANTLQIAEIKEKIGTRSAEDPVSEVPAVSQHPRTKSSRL

In turn, “Asef-ΔDH (mutant that lacks the DH domain (GEF domain) of Asef) (from UniProt Q9NR80 1-619)” returned a decrease of migration of SW480 cells of 40 % decrease.

Turning to “Asef-ABR expressed in cells from a plasmid (from UniProt Q9NR80 73-126)”, the migration of SW480 cells relative to parental or Mock cells (% of parental or Mock cells) turned out to be 50.
